Source: FireProtDB (doi:10.1021/acs.biochem.5b01204)

B1: Sliding clamp, P04525 (parent)
chain: MKLSKDTTALLKNFATINSGIMLKSGQFIMTRAVNGTTYAEANISDVIDFDVAIYDLNGFLGILSLVNDDAEISQSEDGNIKIADARSTIFWPAADPSTVVAPNKPIPFPVASAVTEIKAEDLQQLLRVSRGLQIDTIAITVKEGKIVINGFNKVEDSALTRVKYSLTLGDYDGENTFNFIINMANMKMQPGNYKLLLWAKGKQGAAKFEGEHANYVVALEADSTHDF

Variants of: B1
Details: Enterobacteria phage T4; pH 7.4; 25 °C; Urea; CD; Sodium Phosphate Buffer; structure 1CZD; whole UniProt chain shown

Variant | denaturant midpoint (higher = more stable)
W92F | 2 M

Same assay, conditions: Enterobacteria phage T4; pH 7.4; 25 °C; Urea; CD; Sodium Phosphate Buffer; transition: 3; structure 1CZD; whole UniProt chain shown

Variant | denaturant midpoint (higher = more stable)
W199F | 1.9 M
